The values that follow come from US20230088269A1 (ARGENX BVBA, published 2023).

The target in assay [1] is T1, human IL-22R expressed on cells (BW-hIL22R, Baf3-hIL22R/IL20Rb, transfected HEK, primary human skin cells) (human, UniProt Q8N6P7 16-574).
T1 sequence: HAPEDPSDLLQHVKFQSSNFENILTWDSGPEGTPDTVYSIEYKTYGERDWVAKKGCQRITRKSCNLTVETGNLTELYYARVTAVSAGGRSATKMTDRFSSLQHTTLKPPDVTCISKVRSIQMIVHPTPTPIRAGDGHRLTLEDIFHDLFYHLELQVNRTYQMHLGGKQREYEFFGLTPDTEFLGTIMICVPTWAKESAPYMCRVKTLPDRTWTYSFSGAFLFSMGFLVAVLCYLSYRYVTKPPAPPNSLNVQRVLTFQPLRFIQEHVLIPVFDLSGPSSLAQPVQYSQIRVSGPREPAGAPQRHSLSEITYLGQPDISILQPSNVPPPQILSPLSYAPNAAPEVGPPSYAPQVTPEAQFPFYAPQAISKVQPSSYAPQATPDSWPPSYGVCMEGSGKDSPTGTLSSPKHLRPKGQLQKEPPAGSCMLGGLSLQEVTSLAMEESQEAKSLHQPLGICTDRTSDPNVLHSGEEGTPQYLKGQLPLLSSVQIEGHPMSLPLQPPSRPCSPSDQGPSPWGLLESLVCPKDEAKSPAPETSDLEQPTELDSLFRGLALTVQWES
Briefly: cell-based or functional assay.

Assay [2] deals with T1, human IL-22R expressed on cells …. Briefly: cell-based or functional assay. This is another data set of the same source.
Assay [3] deals with T2, recombinant mouse IL22R (monomeric, R&D Systems cat 4248-MR) (mouse, UniProt Q80XZ4 16-230).
T2 construct: extracellular domain; also called murine IL-22R; mIL22R
T2 sequence (looked up): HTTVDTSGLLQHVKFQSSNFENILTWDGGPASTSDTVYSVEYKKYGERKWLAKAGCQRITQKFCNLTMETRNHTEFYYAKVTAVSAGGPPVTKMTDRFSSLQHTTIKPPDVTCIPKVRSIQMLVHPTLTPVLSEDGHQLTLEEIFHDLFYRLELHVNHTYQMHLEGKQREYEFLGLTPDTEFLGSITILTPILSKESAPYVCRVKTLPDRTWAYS
Briefly: summary table of cross-reactivity, mAb, column m = mouse.

B1: 218A7 mAb (antibody, V domains shown)
VH: QVQLVESGGGLVQPGGSLRLSCAASGFTFSSYDMSWVRQAPGKGLEWVSSIYNDGSNTAYSDSVKGRFTISRDNAKNTLYLQMNSLKSEDTAVYYCAKVGFSGTYYSESWGQGTQVTVSS
VL: LPVLTQPSAVSVSLGQTARITCQGGYYAHWYQQKPGQAPVLVIYGQNNRPSGIPERFSGSGAGNTATLTISGAQAEDEAEYYCQSGSSSANAVFGGGTKLTVL
notes: VH family 4; light chain shuffled variant of 157A2, not germlined
As for B1, in assay [1], the “IC50 blocking IL-22 (nM), BWhIL22R cell line” value stood at 0.28 nM and the “Relative potency to 280.346.TSY (IL-22, BWhIL22R cell line)” value worked out at 2.5 fold. Also, the “IC50 blocking IL-22 (pM), BW hIL22R proliferation” value in assay [2] was 360 pM. The binding result in assay [3] was “no binding”.
